Broadly, the Kd is the free concentration of one partner at which half of the binding sites on the other are occupied at equilibrium, for simple one-to-one binding.

The results in this text go back to article PMC3711457, “Control of DNA minor groove width and Fis protein binding by the purine 2-amino group” (Nucleic Acids Research, 2013).

Data set [1] deals with T1, Fis-K90A (UniProt P0A6R3 1-98, K90A). Kind of data set: EMSA; 50 ug/ml poly dI/dC; EMSA with 50 ug/ml poly dI/dC as in ref 19; buffer, salt, pH and temperature not stated in the material. As to conditions: protein: recombinant; chain copies: 2; label: 32P; 27 bp duplex. (In EMSA bound probe runs differently from free probe, usually more slowly.)
Data set [2] addresses T2, Fis (wild type) (UniProt P0A6R3 1-98). Kind of data set: EMSA; 50 ug/ml poly dI/dC; high-affinity reference, Kd in figure only; EMSA with 50 ug/ml poly dI/dC as in ref 19; buffer, salt, pH and temperature not stated in the material. As to conditions: protein: recombinant; chain copies: 2; label: 32P; 27 bp duplex.
Data set [3] deals with the molecule itself. In words: crystal structure; Fis co-crystallized with DNA duplexes F28, F28-dI, F28-2AP and F29-dI; data collected at 100 K; molecular replacement with Fis-F1 (PDB 3IV5).
The target in data set [4] is T1, Fis-K90A. Kind of data set: EMSA; 50 ug/ml poly dI/dC; EMSA with 50 ug/ml poly dI/dC as in ref 19; buffer, salt, pH and temperature not stated in the material. The note with it: protein: recombinant; chain copies: 2; duplex.
Data set [5] addresses T2, Fis (wild type). The description is as above. The note with it: protein: recombinant; chain copies: 2; duplex.
Data set [6] deals with T2, Fis (wild type). In words: X-ray crystallography; 2.7 A; EMSA with 50 ug/ml poly dI/dC as in ref 19; buffer, salt, pH and temperature not stated in the material. The note with it: protein: recombinant; chain copies: 2; label: 32P; 27 bp duplex.
The target in data set [7] is T1, Fis-K90A. Kind of data set: EMSA; 50 ug/ml poly dI/dC; essentially abolished; EMSA with 50 ug/ml poly dI/dC as in ref 19; buffer, salt, pH and temperature not stated in the material. The note with it: protein: recombinant; chain copies: 2; label: 32P; 27 bp duplex.
In data set [8] the target is T2, Fis (wild type). In words: EMSA; 50 ug/ml poly dI/dC; 230-fold better than F29; half-life 5 min; EMSA with 50 ug/ml poly dI/dC as in ref 19; buffer, salt, pH and temperature not stated in the material. The note with it: protein: recombinant; chain copies: 2; label: 32P; duplex.
In data set [9] the target is T2, Fis (wild type). Kind of data set: X-ray crystallography; 2.8 A; EMSA with 50 ug/ml poly dI/dC as in ref 19; buffer, salt, pH and temperature not stated in the material. The note with it: protein: recombinant; chain copies: 2; label: 32P; duplex.
Data set [10] has as its target T1, Fis-K90A. Kind of data set: EMSA; 50 ug/ml poly dI/dC; binding largely restored; EMSA with 50 ug/ml poly dI/dC as in ref 19; buffer, salt, pH and temperature not stated in the material. The note with it: protein: recombinant; chain copies: 2; label: 32P; 27 bp duplex.
In data set [11] the target is T2, Fis (wild type). In words: EMSA; 50 ug/ml poly dI/dC; 60-fold better than F28; half-life 14 min; EMSA with 50 ug/ml poly dI/dC as in ref 19; buffer, salt, pH and temperature not stated in the material. As to conditions: protein: recombinant; chain copies: 2; label: 32P; 27 bp duplex.

B1: F1 (dsDNA)
DNA 1: AAATTTGTTTGAATTTTGAGCAAATTT
DNA 2: AAATTTGCTCAAAATTCAAACAAATTT
As for B1, the binding signal in data set [1] is ~1 fold of Fis-wt (indistinguishable). Also, the binding result in data set [2] was “binds”.

B2: Fis protein (natural protein)
chain: MFEQRVNSDVLTVSTVNSQDQVTQKPLRDSVKQALKNYFAQLNGQDVNDLYELVLAEVEQPLLDMVMQYTRGNQTRAALMMGINRGTLRKKLKKYGMN
notes: also called Fis-wt; wild-type Fis
As for B2, in data set [3], the binding result was “binds”.

B3: F30 (dsDNA)
DNA 1: AAAGCGGTTTGAATTTTGAGCCGCTTT
DNA 2: AAAGCGGCTCAAAATTCAAACCGCTTT
With B3, the binding signal in [4] stood at 9 fold worse than Fis-wt.

B4: F27 (dsDNA)
DNA 1: AAATTTGTTTGAACTTTGAGCAAATTT
DNA 2: AAATTTGCTCAAAGTTCAAACAAATTT
As to B4, the binding signal in data set [4] is 10 fold worse than Fis-wt; in data set [5], ~1 fold of F1 (indistinguishable).

B5: F28 (dsDNA)
DNA 1: AAATTTGTTTGAGCGTTGAGCAAATTT
DNA 2: AAATTTGCTCAACGCTCAAACAAATTT
As for B5, the binding result in data set [6] is “binds”; in data set [7], “no binding”.

B6: F29-dI (dsDNA)
DNA 1: AAATTTGTTTGGGCGCTGAGCAAATTT
DNA 2: AAATTTGCTCAGCGCCCAAACAAATTT
modifications: inosine replaces the guanines of the five central G/C pairs (IICIC), on both strands
As to B6, the binding signal in data set [8] was about 8 fold worse than F1.

B7: F28-2AP (dsDNA)
DNA 1: AAATTTGTTTGAATATTGAGCAAATTT
DNA 2: AAATTTGCTCAATATTCAAACAAATTT
modifications: 2-aminopurine in three central 2AP/T pairs (2T2), on both strands
With B7, the binding result in data set [9] was “binds”.

B8: F28-dI (dsDNA)
DNA 1: AAATTTGTTTGAGCGTTGAGCAAATTT
DNA 2: AAATTTGCTCAACGCTCAAACAAATTT
modifications: inosine replaces the guanines of the three central G/C pairs (ICI), on both strands
Take B8: the binding result in [10] was “binds”. In data set [11], the Kd is under 1 nM.
